Measurements: IntAct's records for PubMed 9436979

B1: Mothers against decapentaplegic homolog 6 (Homo sapiens), O43541 (parent)
chain: MFRSKRSGLVRRLWRSRVVPDREEGGSGGGGGGDEDGSLGSRAEPAPRAREGGGCGRSEVRPVAPRRPRDAVGQRGAQGAGRRRRAGGPPRPMSEPGAGAGSSLLDVAEPGGPGWLPESDCETVTCCLFSERDAAGAPRDASDPLAGAALEPAGGGRSREARSRLLLLEQELKTVTYSLLKRLKERSLDTLLEAVESRGGVPGGCVLVPRADLRLGGQPAPPQLLLGRLFRWPDLQHAVELKPLCGCHSFAAAADGPTVCCNPYHFSRLCGPESPPPPYSRLSPRDEYKPLDLSDSTLSYTETEATNSLITAPGEFSDASMSPDATKPSHWCSVAYWEHRTRVGRLYAVYDQAVSIFYDLPQGSGFCLGQLNLEQRSESVRRTRSKIGFGILLSKEPDGVWAYNRGEHPIFVNSPTLDAPGGRALVVRKVPPGYSIKVFDFERSGLQHAPEPDAADGPYDPNSVRISFAKGWGPCYSRQFITSCPCWLEILLNNPR

Variants of: B1
Details: with smad1_human SMAD1, Q15797
smad1_human SMAD1, Q15797, sequence (Q15797 whole entry): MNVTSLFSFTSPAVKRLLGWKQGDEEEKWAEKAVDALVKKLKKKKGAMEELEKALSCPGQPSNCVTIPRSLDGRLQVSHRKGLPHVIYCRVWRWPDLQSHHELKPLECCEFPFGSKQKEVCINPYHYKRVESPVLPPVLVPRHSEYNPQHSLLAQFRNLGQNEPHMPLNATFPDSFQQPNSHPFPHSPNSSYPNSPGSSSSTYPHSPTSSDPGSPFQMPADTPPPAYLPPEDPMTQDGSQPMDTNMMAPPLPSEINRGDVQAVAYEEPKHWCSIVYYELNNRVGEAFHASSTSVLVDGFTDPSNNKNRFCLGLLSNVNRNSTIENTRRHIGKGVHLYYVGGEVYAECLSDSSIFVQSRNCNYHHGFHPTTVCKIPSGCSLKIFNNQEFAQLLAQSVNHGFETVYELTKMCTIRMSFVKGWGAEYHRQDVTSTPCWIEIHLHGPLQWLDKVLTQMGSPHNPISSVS

Q: Which “effect of a mutation on the interaction” value does the source give for G471S here?
A: disrupting interaction
